Laboratory results: the supplement of paper PMC10567573

B1: ADAMTS4 (parent)
chain: HVDPEEPWSPCSARFITDFLDNGY
B2: NFE2L1 (parent)
chain: TLDGYGIHPKSIDLDNYFTARRLL

Variants of: B1
Assay: protein stability index of a GFP-peptide fusion (GPS, HEK-293T) (PSI 1-6); higher = more stable
Settings: c terminus: a fixed tail appended
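Note: lentivirally expressed fusions sorted by FACS into six bins by GFP to DsRed ratio, PSI derived from sequencing read proportions per bin multiplied by bin number.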

Protein stability index: each site, then its substitutions
P7: K 1.89 | H 1.57 | G 1.92 | F 2.85 | T 1.9 | R 2.14 | W 2.54 | C 2.11 | M 2.23 | N 1.74 | Y 2.79 | D 2.7 | I 1.61 | S 2.35 | A 1.48 | Q 1.72 | E 2.67 | L 3.65 | V 2.56
C11: N 1.9 | A 2.41 | R 1.7 | Q 2.18 | T 2.15 | G 2.05 | P 2 | H 2.06 | M 1.6 | L 1.69 | V 1.82 | K 2.21 | D 2.05 | I 1.79 | Y 3.06 | F 2.1 | S 2.19 | E 2 | W 1.86
D3: P 1.85 | F 1.79 | N 2.21 | Q 2.49 | K 1.76 | V 1.77 | I 1.55 | G 2.78 | A 1.69 | T 2.04 | C 2.63 | E 1.75 | W 1.34 | M 1.89 | H 1.98 | R 1.8 | Y 1.11 | L 1.78 | S 2.48
H1: C 2.17 | Q 2.31 | E 2.76 | G 2.81 | I 2.1 | Y 2.29 | V 2.04 | W 1.78 | M 1.95 | R 2.26 | K 1.91 | T 2.77 | A 2.09 | S 2.54 | P 2.57 | L 1.78 | F 3.17 | D 2.4 | N 2.37
A13: V 2.54 | Y 1.67 | S 1.89 | R 1.87 | N 2.33 | K 2.08 | H 1.85 | W 1.95 | E 2.1 | L 1.88 | Q 1.97 | P 1.89 | G 1.5 | M 2.18 | D 2.35 | T 1.79 | C 2.54 | F 1.92 | I 2.19
T17: A 1.87
P4: E 2.07 | D 2.11 | A 1.63 | R 2.42 | S 1.9 | W 1.69 | Q 1.9 | H 2.21 | F 1.63 | K 1.87 | V 1.62 | T 1.8 | M 1.77 | N 1.95 | G 2.9 | I 1.77 | C 2.23 | L 1.63 | Y 1.98
P10: C 1.5 | H 1.81 | T 1.92 | E 2.48 | D 2.22 | R 1.83 | S 2.49 | Q 2.1 | L 1.72 | A 1.75 | F 1.92 | W 2.08 | Y 1.79 | G 1.88 | N 1.99 | V 1.74 | K 2.21 | I 2.1 | M 2.14
W8: Q 3.37 | V 3.5 | D 3.66 | T 3.54 | C 3.39 | I 3.34 | M 2.82 | Y 2.89 | H 3.44 | R 3.36 | A 3.47 | S 3.27 | K 3.48 | G 3.2 | N 2.95 | F 2.29 | L 3.24 | E 3.92 | P 3.49
F15: M 1.91 | G 2.71 | T 1.64 | S 1.88 | R 2.25 | W 1.64 | Y 2.01 | V 1.91 | I 1.71 | L 1.96 | D 2.47 | N 2.04 | A 1.94 | H 1.98 | C 1.97 | E 2.65 | P 2.08 | K 2.07 | Q 1.77
E5: A 2.37 | Y 3.13 | Q 2.43 | I 2.32 | T 2.96 | R 2.77 | K 2.58 | W 2.79 | M 2.17 | G 2.13 | C 2.19 | F 2.72 | H 1.66 | V 1.92 | P 2.29 | N 1.96 | L 2.31 | D 1.9 | S 2.35
S12: Y 1.83 | K 1.55 | H 2.31 | N 2.05 | G 1.61 | W 1.67 | T 1.47 | R 1.97 | E 1.88 | Q 2.1 | I 2.16 | C 1.8 | V 2.01 | P 1.4 | F 1.86 | A 1.68 | M 1.57 | D 2.39 | L 2.12
I16: W 1.55 | M 1.69 | E 2.33 | T 1.74 | V 1.97 | Q 2.07 | K 1.73 | D 1.94 | S 1.98 | N 2.19 | C 1.59 | Y 1.89 | H 1.72 | F 1.63 | R 2.84 | A 2.13 | P 1.81 | G 2.27 | L 1.67
V2: Y 2.05 | C 2.09 | I 2.56 | T 2.2 | L 2.23 | Q 2.16 | E 3.19 | H 2.37 | K 2.62 | R 2.4 | P 2.23 | F 2.14 | N 2.48 | D 3 | G 2.9 | M 2.75 | W 2.08 | S 2.55 | A 2.36
E6: Q 2.24 | V 1.79 | Y 2.07 | T 1.77 | S 2.43 | M 2.59 | N 1.94 | L 2.05 | A 1.85 | G 1.92 | W 2.57 | R 2.44 | H 1.74 | I 1.56 | C 2.21 | P 2.72 | K 1.64 | D 1.76 | F 2.19
R14: S 2.02 | P 1.87 | G 2.15 | D 2.45 | K 2.32 | C 1.66 | Q 2 | H 1.84 | N 1.86 | I 2.28 | T 1.83 | L 2.13 | V 1.56 | F 2.27 | E 2.58 | A 2.05 | Y 1.71 | M 1.51 | W 1.58
S9: K 1.97 | P 2.32 | W 1.75 | H 2.17 | Y 1.85 | L 1.67 | F 1.93 | Q 1.62 | R 1.93 | A 2.05 | T 1.79 | M 1.77 | E 3.19 | V 1.66 | C 2.08 | N 1.67 | D 2.79 | G 2.24 | I 2.29

Variants of: B2
Assay: as above
Settings: c terminus: a fixed tail appended

Protein stability index of substitutions, site by site:
L24: W 2.31 | I 1.75 | T 2.42 | K 2.9 | F 2.42 | P 2.56 | Q 1.85 | S 2.48 | N 2.48 | E 2.79 | D 2.69 | C 1.84 | M 2.5 | H 2.14 | G 2.56 | V 2.08 | R 3.05 | Y 1.72 | A 2.26
L23: Y 2.33 | R 3.19 | V 1.66 | T 2.17 | P 2.54 | N 2.32 | Q 2.71 | M 2.03 | W 1.82 | S 3.05
